We go through one molecule from patent US20030124508A1, “Method for testing the hormonal effect of substances” (priority 2001, published 2003).

The assay has as its target T1, androgen receptor (Homo sapiens, UniProt P10275).
T1 construct: expressed in transfected cells; host or cells: SH-SY5Y
T1 sequence (P10275 1-920): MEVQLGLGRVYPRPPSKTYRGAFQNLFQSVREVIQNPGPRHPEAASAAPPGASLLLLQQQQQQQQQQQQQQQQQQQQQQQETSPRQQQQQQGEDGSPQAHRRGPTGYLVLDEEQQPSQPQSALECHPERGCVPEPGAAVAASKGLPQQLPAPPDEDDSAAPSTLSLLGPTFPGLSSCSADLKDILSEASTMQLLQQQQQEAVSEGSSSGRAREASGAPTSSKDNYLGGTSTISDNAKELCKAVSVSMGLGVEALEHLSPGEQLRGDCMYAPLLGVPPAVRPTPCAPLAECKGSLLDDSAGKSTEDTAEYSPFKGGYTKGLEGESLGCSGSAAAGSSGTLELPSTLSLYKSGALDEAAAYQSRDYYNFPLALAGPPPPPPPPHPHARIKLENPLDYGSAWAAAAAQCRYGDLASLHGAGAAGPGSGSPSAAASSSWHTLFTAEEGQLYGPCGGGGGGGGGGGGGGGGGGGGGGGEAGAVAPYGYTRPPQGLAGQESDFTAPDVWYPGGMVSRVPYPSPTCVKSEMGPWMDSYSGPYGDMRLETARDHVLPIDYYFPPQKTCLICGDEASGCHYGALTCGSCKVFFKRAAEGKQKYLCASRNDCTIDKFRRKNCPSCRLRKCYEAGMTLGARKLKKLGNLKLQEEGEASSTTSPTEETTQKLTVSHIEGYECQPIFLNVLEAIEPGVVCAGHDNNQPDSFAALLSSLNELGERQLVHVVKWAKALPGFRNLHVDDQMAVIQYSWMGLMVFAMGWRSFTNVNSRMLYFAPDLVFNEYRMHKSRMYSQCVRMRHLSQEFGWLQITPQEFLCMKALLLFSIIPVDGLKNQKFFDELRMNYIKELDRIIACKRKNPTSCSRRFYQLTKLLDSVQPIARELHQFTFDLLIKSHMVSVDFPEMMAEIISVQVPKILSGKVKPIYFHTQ
The assay can be described thus: Co-activation of the androgen receptor signal (MMTV-luciferase reporter) in transfected SH-SY5Y cells. Type of assay: cell-based. The settings on record: SH-SY5Y cells transfected with 1 μg co-activator in CMX, MMTV-luciferase and pSG5AR; DHT for 24 hours; especially at low androgen concentrations of 10^−12-10^−10 M; vs CMX control plasmid. As to the method: The ARAP11-cDNA which codes for the ARAP11 fragment of amino acids 813-1,390, obtained by PCR, was cloned in the standard manner into the vector CMX and transfected with pSG5-AR and MMTV-luciferase in SH-SY5Y cells, also in the standard manner.
After 24 hours, the cells were treated with […] (DHT) as the androgen in the indicated concentrations. The transfected cells were harvested after another 24 hours, and the activity of the reporter gene luciferase was measured. In addition, the total quantity of cell protein was determined for the sake of normalization. One experiment and four measurements were conducted per transfection batch and substance concentration. The error range is given as the SD. The values of the corresponding controls without DHT were subtracted from all signals. The activity is expressed in relative units.

B1: ARAP11-cDNA: cDNA in vector CMX coding for amino acids 813-1,390 of ARAP11, co-activator for the human androgen receptor (protein)
chain: VIHALEKFTVYTLDIPVLFGVSTTSPEETCAQVIREAKRTAPSIVYVPHIHVWWEIVGPTLKATFTTLLQNIPSFAPVLLLATSDKPHSALPEEVQELFIRDYGEIFNVQLPDKEERTKFFEDLILKQAAKPPISKKKAVLQALEVLPVAPPPEPRSLTAEEVKRLEEQEEDTFRELRIFLRNVTHRLAIDKRFRVFTKPVDPDEVPDYVTVIKQPMDLSSVISKIDLHKYLTVKDYLRDIDLICSNALEYNPDRDPGDRLIRHRACALRDTAYAIIKEELDEDFEQLCEEIQESRKKRGCSSSKYAPSYYHVMPKQNSTLVGDKRSDPEQNEKLKTPSTPVACSTPAQLKRKIRKKSNWYLGTIKKRRKISQAKDDSQNAIDHKIESDTEETQDTSVDHNETGNTGESSVEENEKQQNASESKLELRNNSNTCNIENELEDSRKTTACTELRDKIACNGDASSSQIIHISDENEGKEMCVLRMTRARRSQVEQQQLITVEKALAILSQPTPSLVVDHERLKNLLKTVVKKSQNYNIFQLENLYAVISQCIYRHRKDHDKTSLIQKMEQEVENFSCSR
modifications: fetalbrain; ARAP11 fragment from amino acid residues 813- 1390
B1: the “co-activation of the AR signal activity (luciferase reporter activity)” value was “strong co-activation of the AR signal activity”.
